These results are taken from patent publication WO2025083273A1 (dated 2025).

Assay [1] has as its target T1, DR3-8i (human).
T1 construct: also called purified monomeric DR3-8i antigen protein
T1 chain: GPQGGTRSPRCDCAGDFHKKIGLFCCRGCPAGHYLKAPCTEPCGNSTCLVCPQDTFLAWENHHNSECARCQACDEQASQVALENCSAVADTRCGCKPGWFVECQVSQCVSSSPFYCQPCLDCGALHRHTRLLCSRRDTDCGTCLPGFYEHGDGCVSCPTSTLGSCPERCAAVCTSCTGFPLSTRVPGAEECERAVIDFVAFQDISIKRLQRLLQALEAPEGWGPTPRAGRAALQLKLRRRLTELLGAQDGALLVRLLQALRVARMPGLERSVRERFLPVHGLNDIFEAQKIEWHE
Description: BLI, IgG captured on protein A, DR3-8i in solution; single experiment, column not clear. A general note: In BLI a coated tip is dipped into the sample, and binding shifts an interference pattern.

The target in assay [2] is T2, human DR3 (TNFRSF25) expressed on cells (human, UniProt Q93038 25-417).
T2 sequence: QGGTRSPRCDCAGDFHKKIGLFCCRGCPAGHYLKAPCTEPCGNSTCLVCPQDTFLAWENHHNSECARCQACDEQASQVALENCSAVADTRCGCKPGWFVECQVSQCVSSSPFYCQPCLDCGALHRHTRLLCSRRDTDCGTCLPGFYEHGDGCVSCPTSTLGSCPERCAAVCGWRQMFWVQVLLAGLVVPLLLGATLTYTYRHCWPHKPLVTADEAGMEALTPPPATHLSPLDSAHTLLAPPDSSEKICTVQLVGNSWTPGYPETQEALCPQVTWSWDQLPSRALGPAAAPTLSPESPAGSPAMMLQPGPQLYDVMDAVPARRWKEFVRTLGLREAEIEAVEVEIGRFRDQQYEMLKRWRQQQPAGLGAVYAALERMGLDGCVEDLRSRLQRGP
Kind of assay: cell-based or functional assay.

The target of assay [3] is T1, DR3-8i. Description: BLI, IgG captured on protein A, DR3-8i in solution; Experiment 1.
In assay [4] the target is T1, DR3-8i. Kind of assay: BLI, IgG captured on protein A, DR3-8i in solution; Experiment 2.
For assay [5], the target named is T1, DR3-8i. Description: BLI, IgG captured on protein A, DR3-8i in solution; Average.
Assay [6] has as its target T3, recombinant human DR3/TNFRSF25 Fc chimera (human, UniProt Q93038 25-199).
T3 construct: extracellular domain; bought (R&D Systems); also called DR3-Fc; hDR3Fc chimera; not shown: human IgG1 Fc
T3 sequence (looked up): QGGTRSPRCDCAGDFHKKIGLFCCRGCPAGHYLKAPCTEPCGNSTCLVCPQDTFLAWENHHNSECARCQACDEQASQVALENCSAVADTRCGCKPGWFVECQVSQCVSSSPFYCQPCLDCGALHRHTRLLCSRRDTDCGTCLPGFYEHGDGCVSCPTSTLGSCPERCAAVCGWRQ
Description: HTRF epitope competition on DR3-Fc; competitor DyLight 650 labelled B9 IgG; mean ± SD of three experiments. Background: In TR-FRET formats the signal depends on donor and acceptor labels being close together.

B1: VHg1/VLg4 (antibody, human IgG1, V domains shown)
VH: QVQLVQSGGGLVQPGGSLRLSCAASGFTFSSYAMSWVRQAPGKGLEWVSTISDGDSYSYFPDSVKDRFTISRDNSKNTLYLQMNSLRAEDTSVYYCARDRIYGSVQYYAMDYWGQGTLVTVSS
VL: DVVMTQSPDSLAVSLGERATISCRASESVEFSGTSLMQWYQQKPRQPLKLLIYAASNVESGVPDRFSGSGSGTDFTLTISSLQAEDVAVYYCQQSRKLPYTFGQGTRLEIK
notes: human IgG1
In the assay with DR3-8i [1], B1 came in with a Kd of 0.196 nM. For the same molecule, the “Signal (FLU)” value in assay [2] was 2.09e+06 FLU.

B2: VHg10/VLg6 (antibody, human IgG1, V domains shown)
VH: EVQLVESGGGLVQPGGSLRLSCAASGFTFSSYAMSWVRQAPGKGLEWVSTISDGDSYSYFPDSVKDRFTISRDNSKNTLYLQMNSLRAEDTAVYYCARDRIYGSVQYYAMDYWGQGTLVTVSS
VL: DVVMTQSPPSLPVTPGEPASISCRASESVEFSGTSLMQWYLQKPGQSPQVLIYAASNVESGVPDRFSGSGSGTDFTLKISRVEAEDVGVYYCQQSRKLPYTFGQGTRLEIK
notes: human IgG1
For B2, the Kd in the assay with DR3-8i [3] worked out at 0.418 nM; in the assay with DR3-8i [4], 0.234 nM; with DR3-8i [5] it was 0.326 nM. In addition, in assay [2], the “Signal (FLU)” value amounted to 2.75e+06 FLU.

B3: VHg2/VLs10 (antibody, human IgG1, V domains shown)
VH: QMQLVQSGGGLVKPGGSLRLSCAASGFTFSSYAMSWIRQAPGKGLEWVSTISDGDSYSYFPDSVKDRFTISRDNAKNSLYLQMNSLRAEDTAVYYCTRDRIYGSVQYYAMDYWGRGTLVTVSS
VL: ETTLTQSPGTLSLSPGERATLSCRASQSVSSSSLAWYQQKPGQAPRLLIYGASSRATGIPDRFSGSGSGTDFTLTISRLEPEDFAVYYCHQYGGSWTFGKGTKVEIK
notes: human IgG1; also called VHg2_VLg10
Regarding B3, the equilibrium dissociation constant (Kd) with DR3-8i [3] was 0.41 nM; with DR3-8i [4] it was 0.42 nM; with DR3-8i [5], 0.415 nM. In assay [2], the “EC50 (pM), DR3 Jurkat reporter” value came out at 644 pM. For the same molecule, the “Signal (FLU)” value in assay [2] is 2.34e+06 FLU.

B4: VHg6/VLg13 (antibody, human IgG1, V domains shown)
VH: QVQLQQSGGGLVQPGGSLRLSCAASGFTFSSYAMSWVRQAPGKGLEWVATISDGDSYSYFPDSVKDRFTISRDNARNSLYLQMNSLRAEDTAVYYCARDRIYGSVQYYAMDYWGRGTLVTVSS
VL: DIQMTQSPSSLSASVGDRVTITCRASESVEFSGTSLMQWYQQKPGKAPKLLIYAASNVESGVPSRFSGSGSGTDFTFTISSLQPEDIATYYCQQSRKLPYTFGQGTKLEIK
notes: human IgG1
As for B4, the dissociation constant (Kd) with DR3-8i [3] was determined as 0.225 nM; with DR3-8i [4], 0.0956 nM; with DR3-8i [5] it was 0.16 nM. For the same molecule, in assay [6], the IC50 was 0.348 nM. Besides, in assay [2], the “EC50 (pM), DR3 Jurkat reporter” value was 141 pM. Moreover, the “Signal (FLU)” value in assay [2] worked out at 2.75e+06 FLU.

B5: VHg6/VLg11 (antibody, human IgG1, V domains shown)
VH: QVQLQQSGGGLVQPGGSLRLSCAASGFTFSSYAMSWVRQAPGKGLEWVATISDGDSYSYFPDSVKDRFTISRDNARNSLYLQMNSLRAEDTAVYYCARDRIYGSVQYYAMDYWGRGTLVTVSS
VL: DIVMTQSPDSLAVSLGERATINCRASESVEFSGTSLMQWYQQKPGQPPKLLIYAASNVESGVPDRFSGSGSGTDFTLTISSLQAEDVAVYYCQQSRKLPYTFGQGTKLEIK
notes: human IgG1
B5: the dissociation constant (Kd) in the assay with DR3-8i [3] is 0.19 nM; with DR3-8i [4] it was 0.0999 nM; in the assay with DR3-8i [5], 0.145 nM. Moreover, in assay [6], the IC50 turned out to be 0.287 nM. The “EC50 (pM), DR3 Jurkat reporter” value in assay [2] is 130 pM. For the same molecule, the “Signal (FLU)” value in assay [2] was determined as 2.45e+06 FLU.

B6: VHg6/VLg1 (antibody, human IgG1, V domains shown)
VH: QVQLQQSGGGLVQPGGSLRLSCAASGFTFSSYAMSWVRQAPGKGLEWVATISDGDSYSYFPDSVKDRFTISRDNARNSLYLQMNSLRAEDTAVYYCARDRIYGSVQYYAMDYWGRGTLVTVSS
VL: DVVMTQSPDSLAVSLGERATINCRASESVEFSGTSLMQWYQQKPGQPPKLLIYAASNVESGVPDRFSGSGSGTDFTLTISSLQAEDVVVYYCQQSRKLPYTFGGGTKVEIK
notes: human IgG1
For the molecule B6, the affinity in the assay with DR3-8i [1], expressed as Kd, was 0.076 nM. Moreover, the “Signal (FLU)” value in assay [2] was 2.16e+06 FLU.

B7: VHg2/VLg13 (antibody, human IgG1, V domains shown)
VH: QMQLVQSGGGLVKPGGSLRLSCAASGFTFSSYAMSWIRQAPGKGLEWVSTISDGDSYSYFPDSVKDRFTISRDNAKNSLYLQMNSLRAEDTAVYYCTRDRIYGSVQYYAMDYWGRGTLVTVSS
VL: DIQMTQSPSSLSASVGDRVTITCRASESVEFSGTSLMQWYQQKPGKAPKLLIYAASNVESGVPSRFSGSGSGTDFTFTISSLQPEDIATYYCQQSRKLPYTFGQGTKLEIK
notes: human IgG1
For the molecule B7, the Kd with DR3-8i [1] was 0.157 nM. Further, the “Signal (FLU)” value in assay [2] amounted to 2.94e+06 FLU.

B8: VHg1/VLg11 (antibody, human IgG1, V domains shown)
VH: QVQLVQSGGGLVQPGGSLRLSCAASGFTFSSYAMSWVRQAPGKGLEWVSTISDGDSYSYFPDSVKDRFTISRDNSKNTLYLQMNSLRAEDTSVYYCARDRIYGSVQYYAMDYWGQGTLVTVSS
VL: DIVMTQSPDSLAVSLGERATINCRASESVEFSGTSLMQWYQQKPGQPPKLLIYAASNVESGVPDRFSGSGSGTDFTLTISSLQAEDVAVYYCQQSRKLPYTFGQGTKLEIK
notes: human IgG1; also called H1L11; VHg1/VL11
Molecule B8 gave a Kd in the assay with DR3-8i [3] of 0.001 nM. For the same molecule, in assay [6], the IC50 is 0.447 nM. In assay [2], the “EC50 (pM), DR3 Jurkat reporter” value came out at 331 pM and the “Signal (FLU)” value worked out at 2.47e+06 FLU.

B9: VHg5/VLg12 (antibody, human IgG1, V domains shown)
VH: QVQLQQSGGGLVQAGGSLRLSCAASGFTFTSYAMSWVRQAPGKGLEWVATISDGDSYSYFPDSVKDRFIISRDNAKNSLFLQMNSLRAEDTAVYYCARDRIYGSVQYYAMDYWGRGTLVTVSS
VL: EIVLTQSPATLSLSPGERATLSCRASESVEFSGTSLMQWYQQKPGQAPRLLIYAASNVESGIPARFSGSGSGTDFTLTISSLEPEDFAVYYCQQSRKLPYTFGQGTKLEIK
notes: human IgG1
As for B9, the affinity with DR3-8i [1], expressed as Kd, was 0.126 nM. In addition, the “Signal (FLU)” value in assay [2] amounted to 2.62e+06 FLU.

B10: VHg3/VLg4 (antibody, human IgG1, V domains shown)
VH: EVQLVQSGGGLVKPGGSLRLSCAASGFKFSSYAMSWVRQAPGKGLEWLSTISDGDSYSYFPDSVKDRFIISRDNAKNSLYLQMNSLRVEDTGVYYCARDRIYGSVQYYAMDYWGQGTLVTVSS
VL: DVVMTQSPDSLAVSLGERATISCRASESVEFSGTSLMQWYQQKPRQPLKLLIYAASNVESGVPDRFSGSGSGTDFTLTISSLQAEDVAVYYCQQSRKLPYTFGQGTRLEIK
notes: human IgG1
Take B10: in the assay with DR3-8i [1], the Kd came out at 0.385 nM. The “Signal (FLU)” value in assay [2] stood at 2.32e+06 FLU.

B11: VHg5/VLg11 (antibody, human IgG1, V domains shown)
VH: QVQLQQSGGGLVQAGGSLRLSCAASGFTFTSYAMSWVRQAPGKGLEWVATISDGDSYSYFPDSVKDRFIISRDNAKNSLFLQMNSLRAEDTAVYYCARDRIYGSVQYYAMDYWGRGTLVTVSS
VL: DIVMTQSPDSLAVSLGERATINCRASESVEFSGTSLMQWYQQKPGQPPKLLIYAASNVESGVPDRFSGSGSGTDFTLTISSLQAEDVAVYYCQQSRKLPYTFGQGTKLEIK
notes: human IgG1
For the molecule B11, the Kd with DR3-8i [1] worked out at 0.0881 nM. Also, the “Signal (FLU)” value in assay [2] came to 2.4e+06 FLU.

B12: VHg5/VLg13 (antibody, human IgG1, V domains shown)
VH: QVQLQQSGGGLVQAGGSLRLSCAASGFTFTSYAMSWVRQAPGKGLEWVATISDGDSYSYFPDSVKDRFIISRDNAKNSLFLQMNSLRAEDTAVYYCARDRIYGSVQYYAMDYWGRGTLVTVSS
VL: DIQMTQSPSSLSASVGDRVTITCRASESVEFSGTSLMQWYQQKPGKAPKLLIYAASNVESGVPSRFSGSGSGTDFTFTISSLQPEDIATYYCQQSRKLPYTFGQGTKLEIK
notes: human IgG1
For the molecule B12, in the assay with DR3-8i [1], binding was put at a Kd of 0.124 nM. Moreover, the “Signal (FLU)” value in assay [2] was 2.7e+06 FLU.

B13: VHg2/VLg4 (antibody, human IgG1, V domains shown)
VH: QMQLVQSGGGLVKPGGSLRLSCAASGFTFSSYAMSWIRQAPGKGLEWVSTISDGDSYSYFPDSVKDRFTISRDNAKNSLYLQMNSLRAEDTAVYYCTRDRIYGSVQYYAMDYWGRGTLVTVSS
VL: DVVMTQSPDSLAVSLGERATISCRASESVEFSGTSLMQWYQQKPRQPLKLLIYAASNVESGVPDRFSGSGSGTDFTLTISSLQAEDVAVYYCQQSRKLPYTFGQGTRLEIK
notes: human IgG1
B13 showed an equilibrium dissociation constant (Kd) with DR3-8i [1] of 0.0248 nM. Further, the “Signal (FLU)” value in assay [2] is 2.21e+06 FLU.

B14: VHg5/VLg2 (antibody, human IgG1, V domains shown)
VH: QVQLQQSGGGLVQAGGSLRLSCAASGFTFTSYAMSWVRQAPGKGLEWVATISDGDSYSYFPDSVKDRFIISRDNAKNSLFLQMNSLRAEDTAVYYCARDRIYGSVQYYAMDYWGRGTLVTVSS
VL: DIQLTQSPSSLSASVGDRVTITCRASESVEFSGTSLMQWYQQKAGLAPKLLIYAASNVESGVPSRFSGSGSGTDFTLTISSLQPEDFGTYYCQQSRKLPYTFGQGTRLEIK
notes: human IgG1
In the assay with DR3-8i [1], B14 showed a Kd of 0.132 nM. Besides, the “Signal (FLU)” value in assay [2] was 2.76e+06 FLU.

As a reminder, the Kd is a measure of binding affinity in units of concentration. Lower therefore signals a tighter complex. The IC50 is the concentration needed to halve the response being measured.
